Target: antibody-half molecule A7 with PF1H and PF1L-k0 (PF1H-DA303v2.n.HATF.B/PF1L-k0)
Experiment: SPR (Biacore T200), about 50 RU of half molecule A captured on chip-bound biotinylated antigen peptide, half molecule B at 2.5 mg/mL as analyte (Example 10)
Experimental: The interaction between the obtained antibody-half molecules was analyzed using Biacore (registered trademark) T200. Biotin CAPture Kit, Series S (GE Healthcare) was used for the measurement, and HBS-EP+10X (GE Healthcare) diluted 1/10th was used as a running buffer. The measurement temperature was 25° C. For the sensor chip, Series S Sensor Chip CAP (GE Healthcare) onto which previously-biotinylated antigen peptides were allowed to interact and thereby immobilized was used. These chips were allowed to capture approximately 50 RU of the antibody-half molecule A of interest and then interact with the antibody-half molecule B of interest diluted with the running buffer at 2.5 mg/mL for 180 seconds at a flow rate of 30 μL/min, and measurement was carried out. The molar binding ratio was calculated based on the following Formula 2. The antibody-half molecule A captured on the chip was washed as described in the instructions attached to the kit, and the chip was regenerated and reused.
At this time, for the antibody-half molecule to be captured, PF1H (SEQ ID NO: 22), which is the H chain variable region portion of the anti-human IL6 receptor antibody described in WO 2009/041621, was used as the H chain variable region portion, PF1L (SEQ ID NO: 23), which is the L chain variable region portion of the anti-human IL6 receptor antibody described in WO 2009/041621, was used as the L chain variable region portion, and k0 was used as the L chain constant region portion. In addition, for the antibody-half molecules used as analytes, IC17H (SEQ ID NO: 24), which is the anti-KLH antibody described in WO 2015/174439, was used as the H chain variable region, IC17L (SEQ ID NO: 25), which is the anti-KLH antibody described in WO 2015/174439, was used as the L chain variable region, and k0 was used as L chain constant region.

Chain of antibody-half molecule A7 with PF1H and PF1L-k0 (PF1H-DA303v2.n.HATF.B/PF1L-k0) (heavy, as listed by the source): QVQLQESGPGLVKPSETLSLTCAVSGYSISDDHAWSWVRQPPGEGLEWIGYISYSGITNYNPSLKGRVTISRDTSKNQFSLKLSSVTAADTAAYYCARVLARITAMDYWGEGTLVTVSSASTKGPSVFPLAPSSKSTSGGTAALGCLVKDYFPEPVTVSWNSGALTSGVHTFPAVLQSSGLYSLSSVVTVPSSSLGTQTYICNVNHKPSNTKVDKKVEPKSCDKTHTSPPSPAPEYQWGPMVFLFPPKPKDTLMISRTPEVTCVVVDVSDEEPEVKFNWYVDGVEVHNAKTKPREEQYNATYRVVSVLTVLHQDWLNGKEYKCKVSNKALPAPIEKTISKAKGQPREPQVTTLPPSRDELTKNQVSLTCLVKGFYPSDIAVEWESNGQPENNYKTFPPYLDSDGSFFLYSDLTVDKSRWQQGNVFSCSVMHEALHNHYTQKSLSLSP

- molar binding ratio: 0.32 molar ratio
B1: antibody-half molecule B7 with IC17H and IC17L-k0 (IC17H-DB220v2.n.HATF.A/IC17L-k0) (antibody, human IgG1, kappa)
heavy: QVQLQQSGPQLVRPGASVKISCKASGYSFTSYWMHWVNQRPGQGLEWIGMIDPSYSETRLNQKFKDKATLTVDKSSSTAYMQLSSPTSEDSAVYYCALYGNYFDYWGQGTTLTVSSASTKGPSVFPLAPSSKSTSGGTAALGCLVKDYFPEPVTVSWNSGALTSGVHTFPAVLQSSGLYSLSSVVTVPSSSLGTQTYICNVNHKPSNTKVDKKVEPKSCDKTHTSPPSPAPELLGGPSVFLFPPKPKDTLMISRTPEVTCVVVDVSHEEPEVKFNWYVDGVEVHNAKTKPREEQYNSTYRVVSVLTVLHQDWLNGKEYKCKVSNDALPMPIEETISKAKGQPREPQVYTLPPSRDELTKNQVHLTCLVKGFYPSDIAVEWESNGQPENNYKTTPPYLDSDGSFALYSDLTVDKSRWQQGNVFSCSVMHEALHNHYTQKSLSLSP
light: DIQMTQSSSSFSVSLGDRVTITCKASEDIYNRLAWYQQKPGNAPRLLISGATSLETGVPSRFSGSGSGKDYTLSITSLQTEDVATYYCQQYWSTPYTFGGGTKLEVKRTVAAPSVFIFPPSDEQLKSGTASVVCLLNNFYPREAKVQWKVDNALQSGNSQESVTEQDSKDSTYSLSSTLTLSKADYEKHKVYACEVTHQGLSSPVTKSFNRGEC
